Assay [1] addresses T1, monovalent hVISTA-ECD (amino acids 32-193 of SEQ ID NO: 1 with a 7xHis tail) (human, UniProt Q9H7M9 33-193).
T1 construct: analyte of the SPR assays; also called huVISTA-His; human VISTA-ECD
The experiment in a line: SPR 37C, Ab on Protein A, hVISTA-ECD 100-0.78 nM, pH 6.0. How it is done:
(§1) For this assay, ‘029, ‘761 and ‘767were reformatted as hIgG1f isotype and were expressed as both standard hIgG1f and in hIgG1f afucosylated formats to compare against the hIgG1.3f Fc. An SPR kinetics assay was conducted to measure koff and KD binding affinity measurements for VISTA Abs at acidic and physiological pH using a Biacore® T100 instrument (GE Healthcare). […] Antibodies were diluted to 25 nM in PBST pH 7.4, and were captured across active biosensor flow cells at 5 ul/min for 45 seconds. A concentration series of 1600 - 0.78 nM (pH 7.4) and 100 - 0.78 nM (pH 6.0) monovalent hVISTA-ECD (SEQ ID NO: 325) was prepared running buffer, and was injected over the captured antibodies at 40 ul/min to measure association and dissociation. Two 15 second injections of 10 mM glycine pH 1.5 were used to regenerate the Protein A capture surface between assay cycles. Rate constants ka (kₒₙ) and kd (koff) were derived from reference flow cell and 0 nM blank-subtracted sensorgrams, and were fit to a 1:1 binding model in Biacore® T200 Evaluation Software v.2.0. The affinity constant, KD was calculated as the ratio of rate constants koff/kₒₙ for each VISTA antibody. Ratios of koff and KD at pH 7.4 / pH 6.0 were calculated to compare off-rate and affinity improvement at acidic pH relative to physiological pH.

The target of assay [2] is T2, avidin (ThermoFisher Scientific catalog #21128) (UniProt P02701 25-152).
T2 construct: pI control protein
T2 sequence (P02701 25-152 limits assumed): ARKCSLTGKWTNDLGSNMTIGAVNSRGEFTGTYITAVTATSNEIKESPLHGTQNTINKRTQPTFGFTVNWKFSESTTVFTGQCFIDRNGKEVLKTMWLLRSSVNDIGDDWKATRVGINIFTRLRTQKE
The experiment in a line: SPR 25C, Ab on Protein A, pH 6 and pH 7.4.

For assay [3], the target named is T3, BSA (Calbiochem catalog #126593) (UniProt P02769 25-607).
T3 construct: pI control protein
T3 sequence (P02769 25-607 limits assumed): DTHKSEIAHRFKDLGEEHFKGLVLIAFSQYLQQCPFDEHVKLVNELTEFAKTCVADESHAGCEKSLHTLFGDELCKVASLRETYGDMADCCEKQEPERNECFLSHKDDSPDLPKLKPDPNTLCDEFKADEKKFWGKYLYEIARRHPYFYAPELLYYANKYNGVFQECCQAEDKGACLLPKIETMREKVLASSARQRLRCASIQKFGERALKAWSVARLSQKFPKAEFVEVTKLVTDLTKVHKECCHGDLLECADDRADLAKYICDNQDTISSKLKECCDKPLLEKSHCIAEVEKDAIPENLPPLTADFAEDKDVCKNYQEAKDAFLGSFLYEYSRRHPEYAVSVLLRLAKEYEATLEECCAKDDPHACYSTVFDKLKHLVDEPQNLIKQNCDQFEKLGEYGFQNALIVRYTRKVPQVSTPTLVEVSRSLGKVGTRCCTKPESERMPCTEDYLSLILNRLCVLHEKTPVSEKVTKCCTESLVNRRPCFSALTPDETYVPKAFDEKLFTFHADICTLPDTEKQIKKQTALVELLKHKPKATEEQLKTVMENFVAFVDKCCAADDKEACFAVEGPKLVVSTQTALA
The experiment in a line: SPR 25C, Ab on Protein A, pH 6 and pH 7.4.

The target in assay [4] is T1, monovalent hVISTA-ECD (amino acids …). The experiment in a line: SPR 37C, pH 6.9 over pH 6.0. How it is done:
(§2) Human VISTA binding kinetics of P1-061029 (“ ‘029”), P1-068761 (“ ‘761”) and P1-068767 (“ ‘767”) (as IgG1.3 antibodies) were measured at pH values between pH 7.4 and pH 6.0, i.e., at pH 6.9 and pH 6.45 using a Biacore® T100 instrument (GE Healthcare). […] Antibodies were diluted to 25 nM in PBST pH 7.4, and were captured across active biosensor flow cells at 5 ul/min for 45 seconds. A concentration series of 100 - 0.78 nM monovalent hVISTA-ECD (SEQ ID NO: 325) was prepared pH 7.4, 6.9, 6.45 and 6.0 running buffers, and was injected over the captured antibodies at 40 ul/min to measure association and dissociation. Two 15 second injections of 10 mM glycine pH 1.5 were used to regenerate the Protein A capture surface between assay cycles. Rate constants ka (kₒₙ) and kd (koff) were derived from reference flow cell and 0 nM blank-subtracted sensorgrams, and were fit to a 1:1 binding model in Biacore® T200 Evaluation Software v.2.0. The affinity constant, KD was calculated as the ratio of rate constants koff/kₒₙ for each VISTA antibody. Ratios of koff and KD at each pH relative to pH 6.0 were calculated to evaluate how the VISTA koff and KD change as the buffer pH shifts to physiological, and are shown in Table 7. […] As the buffer pH shifts from acidic to physiological, VISTA koff and KD both weaken for ‘761 and ‘767. Physiological pH data for ‘761 and ‘767 for comparison is referenced from Table 7 and noted with an asterisk (*).

The target is the same in assay [5]. The experiment in a line: SPR 37C, pH 6.45 over pH 6.0. How it is done:
as §2

The target is the same in assay [6]. The experiment in a line: SPR 37C, Ab on Protein A, hVISTA-ECD 1600-0.78 nM, pH 7.4. How it is done: as §1
Assay [7] shares this target. The experiment in a line: SPR 37C, Ab on Protein A, hVISTA-ECD 50-5 nM, pH 6.0, average. The method, boiled down:
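Biacore T100 at 37C: antibodies (IgG1.3 format, 25 nM in PBST pH 7.4) captured on Protein A, then 50 - 5 nM monovalent hVISTA-ECD injected in pH 7.4 or 6.0 running buffer. Reference- and blank-subtracted sensorgrams fit to 1:1 model; KD = koff/kon.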

For assay [8] the target is unchanged. As to the kind of experiment: SPR 37C, Ab on Protein A, hVISTA-ECD 100-0.78 nM, pH 6.9. How it is done: as §2

The Kd is the constant that tells how readily two partners part at equilibrium. The low end stands for a tighter complex, the high end for a looser complex. The koff is the rate constant with which the complex falls apart. Low values mean slow dissociation, high ones fast dissociation. One may read the kon as the rate constant with which the complex forms. A higher kon goes with faster complex formation.

T1 sequence (Q9H7M9 other isoform, or with tags, fused parts or gaps limits assumed): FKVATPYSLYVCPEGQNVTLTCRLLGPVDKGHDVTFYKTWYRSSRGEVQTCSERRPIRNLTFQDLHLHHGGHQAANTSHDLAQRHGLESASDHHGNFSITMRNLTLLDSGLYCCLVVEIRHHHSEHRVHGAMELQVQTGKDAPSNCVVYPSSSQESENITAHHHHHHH

B1: P1-061029.IgG1.3 (antibody)
heavy: EVQLVESGGGLVQPGKSLRLSCAASGFTLDDYAMHWVRQAPGKGLEWVSGINWNSANIGYADSVKGRFTISRDNAKNSLYLQMNSLRTEDTALYYCAKVPGYSGGWIDAFDVWGQGTMVTVSSASTKGPSVFPLAPSSKSTSGGTAALGCLVKDYFPEPVTVSWNSGALTSGVHTFPAVLQSSGLYSLSSVVTVPSSSLGTQTYICNVNHKPSNTKVDKRVEPKSCDKTHTCPPCPAPEAEGAPSVFLFPPKPKDTLMISRTPEVTCVVVDVSHEDPEVKFNWYVDGVEVHNAKTKPREEQYNSTYRVVSVLTVLHQDWLNGKEYKCKVSNKALPAPIEKTISKAKGQPREPQVYTLPPSREEMTKNQVSLTCLVKGFYPSDIAVEWESNGQPENNYKTTPPVLDSDGSFFLYSKLTVDKSRWQQGNVFSCSVMHEALHNHYTQKSLSLSPG
light: not shown
notes: IgG1.3; also called P1-061029 (parent); P1-061029-18
Turning to B1, the Kd in assay [1] amounted to 7.2 nM; in assay [6], 0.042 µM; in assay [7], 3.6 nM; in assay [8], 14 nM. Also, the koff in assay [1] came to 0.0079 s⁻¹; in assay [6], 0.0068 s⁻¹; in assay [7], 0.0058 s⁻¹; in assay [8], 0.0057 s⁻¹. The on-rate constant (kon) in assay [1] came to 1.1e+06 M⁻¹ s⁻¹; in assay [6], 160000 M⁻¹ s⁻¹; in assay [7], 1.6e+06 M⁻¹ s⁻¹; in assay [8] it was 410000 M⁻¹ s⁻¹. Besides, the binding result in assay [2] and in assay [3] was “no binding (tested: 10 RU; analyte 100-10 nM)” each time. Further, the “KD ratio to pH 6.0” value in assay [4] is 7.1; in assay [5], 2.7. The results for the “koff ratio to pH 6.0” value in assay [4] and in assay [5] were 1 and 0.7, respectively.

B2: P1-068761.IgG1.3 (antibody)
heavy: EVQLVESGGGLVQPGKSLRLSCAASGFTLEDEAMHWVRQAPGKGLEWVSGINWNSEEIGYADSVKGRFTISRDNAKNSLYLQMNSLRTEDTALYYCAKVPGYSHGWIDAEDVWGQGTMVTVSSASTKGPSVFPLAPSSKSTSGGTAALGCLVKDYFPEPVTVSWNSGALTSGVHTFPAVLQSSGLYSLSSVVTVPSSSLGTQTYICNVNHKPSNTKVDKRVEPKSCDKTHTCPPCPAPEAEGAPSVFLFPPKPKDTLMISRTPEVTCVVVDVSHEDPEVKFNWYVDGVEVHNAKTKPREEQYNSTYRVVSVLTVLHQDWLNGKEYKCKVSNKALPAPIEKTISKAKGQPREPQVYTLPPSREEMTKNQVSLTCLVKGFYPSDIAVEWESNGQPENNYKTTPPVLDSDGSFFLYSKLTVDKSRWQQGNVFSCSVMHEALHNHYTQKSLSLSPG
light: not shown
notes: IgG1.3; also called P1-068761-20; P1-068761 hIgG1.3f
B2: the Kd in assay [1] is 4.3 nM; in assay [6], 11 µM; in assay [7], 3.8 nM; in assay [8], 190 nM. Besides, the koff in assay [1] turned out to be 0.0016 s⁻¹; in assay [6], 0.042 s⁻¹; in assay [7], 0.0014 s⁻¹; in assay [8], 0.0089 s⁻¹. Moreover, the kon is 370000 M⁻¹ s⁻¹ in assay [1], 3800 M⁻¹ s⁻¹ in assay [6], 380000 M⁻¹ s⁻¹ in assay [7] and 48000 M⁻¹ s⁻¹ in assay [8]. For the same molecule, the binding result in assay [2] and in assay [3] was “no binding (tested: 10 RU; analyte 100-10 nM)” in each case. Also, the “KD ratio to pH 6.0” value in assay [4] was 170; in assay [5] it was 18.4. Besides, the “koff ratio to pH 6.0” value in assay [4] came to 13.4; in assay [5], 3.2.

The values are drawn from patent US20230192860A1 (Bristol-Myers Squibb, published 2023).
